Where only a bound is given, the exact number is not on record here.

Assay [1] deals with T1, CBF1/RBPJk (UniProt Q06330 1-500).
T1 construct: also called CBF1 tethering protein
Kind of assay: EMSA supershift with heparin-agarose purified CBF1 and Cp CBF1 site probe; phosphoimager, relative to wild-type EBNA2(252-425).

Assay [2] concerns the target T1, CBF1/RBPJk. Kind of assay: EMSA, against wild-type EBNA2 252-425.
The target of assay [3] is T1, CBF1/RBPJk. Kind of assay: EMSA with two-fold increases in peptide amount, against type A EBNA2 252-425.

T1 sequence (Q06330 whole entry): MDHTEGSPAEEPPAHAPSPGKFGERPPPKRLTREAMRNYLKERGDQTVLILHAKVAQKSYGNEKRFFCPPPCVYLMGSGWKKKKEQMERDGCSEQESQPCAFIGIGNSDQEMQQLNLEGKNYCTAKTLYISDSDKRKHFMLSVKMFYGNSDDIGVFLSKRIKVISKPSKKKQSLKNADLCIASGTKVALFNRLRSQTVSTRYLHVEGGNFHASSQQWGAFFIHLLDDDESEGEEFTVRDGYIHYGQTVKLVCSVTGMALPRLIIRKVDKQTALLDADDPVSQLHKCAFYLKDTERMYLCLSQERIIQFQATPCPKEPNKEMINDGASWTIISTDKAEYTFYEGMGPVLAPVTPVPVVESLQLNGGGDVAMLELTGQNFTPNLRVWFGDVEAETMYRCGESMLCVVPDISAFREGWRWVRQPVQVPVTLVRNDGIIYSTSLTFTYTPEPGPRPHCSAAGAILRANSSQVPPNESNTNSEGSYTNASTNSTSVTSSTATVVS

B1: wild-type EBNA2 peptide comprised of amino acids 252-425 (type A) (other)
chain: LHVPDQSMHPLTHQSTPNDPDSPEPRSPTVFYNIPPMPLPPSQLPPPAAPAQPPPGVINDQQLHHLPSGPPWWPPICDPPQPSKTQGQSRGQSRGRGRGRGRGRGKGKSRDKQRKPGGPWRPEPNTSSPSMPELSPVLGLHQGQGAGDSPTPGPSNAAPVCRNSHTATPNVSPI
notes: range 252-425; In vitro transcribed and translated, labeled with 35S-methionine; also called aa252-425 (wild-type); E2 252-425
As for B1, in assay [1], the “% Complex formation” value worked out at 100%.

B2: EBNA2 252-425 WW323SR (CR6) (other)
chain: LHVPDQSMHPLTHQSTPNDPDSPEPRSPTVFYNIPPMPLPPSQLPPPAAPAQPPPGVINDQQLHHLPSGPPSRPPICDPPQPSKTQGQSRGQSRGRGRGRGRGRGKGKSRDKQRKPGGPWRPEPNTSSPSMPELSPVLGLHQGQGAGDSPTPGPSNAAPVCRNSHTATPNVSPI
notes: range 252-425; In vitro transcribed and translated
For B2, the “% Complex formation” value in assay [1] is under 1%.

B3: EBNA2 252-425 PI326SR (CR6) (other)
chain: LHVPDQSMHPLTHQSTPNDPDSPEPRSPTVFYNIPPMPLPPSQLPPPAAPAQPPPGVINDQQLHHLPSGPPWWPSRCDPPQPSKTQGQSRGQSRGRGRGRGRGRGKGKSRDKQRKPGGPWRPEPNTSSPSMPELSPVLGLHQGQGAGDSPTPGPSNAAPVCRNSHTATPNVSPI
notes: as for B2
B3: the “% Complex formation” value in assay [1] worked out at 5%.

B4: EBNA2 252-425 SR360VD (PKC) (other)
chain: LHVPDQSMHPLTHQSTPNDPDSPEPRSPTVFYNIPPMPLPPSQLPPPAAPAQPPPGVINDQQLHHLPSGPPWWPPICDPPQPSKTQGQSRGQSRGRGRGRGRGRGKGKVDDKQRKPGGPWRPEPNTSSPSMPELSPVLGLHQGQGAGDSPTPGPSNAAPVCRNSHTATPNVSPI
notes: range 252-425; In vitro transcribed and translated; also called PKC mutation
With B4, in assay [1], the “% Complex formation” value was 60%. In addition, the “fold reduction in the amounts of EBNA2/CBF1 complex formed” value in assay [2] was about 2 fold.

B5: EBNA2 252-425 LGL389SRT (CR7) (other)
chain: LHVPDQSMHPLTHQSTPNDPDSPEPRSPTVFYNIPPMPLPPSQLPPPAAPAQPPPGVINDQQLHHLPSGPPWWPPICDPPQPSKTQGQSRGQSRGRGRGRGRGRGKGKSRDKQRKPGGPWRPEPNTSSPSMPELSPVSRTHQGQGAGDSPTPGPSNAAPVCRNSHTATPNVSPI
notes: range 252-425; In vitro transcribed and translated; also called CR7 mutation
As for B5, in assay [1], the “% Complex formation” value was 50%. In assay [2], the “fold reduction in the amounts of EBNA2/CBF1 complex formed” value is about 2 fold.

B6: EBNA2 252-425 GP320SR (CR6) (other)
chain: LHVPDQSMHPLTHQSTPNDPDSPEPRSPTVFYNIPPMPLPPSQLPPPAAPAQPPPGVINDQQLHHLPSSRPWWPPICDPPQPSKTQGQSRGQSRGRGRGRGRGRGKGKSRDKQRKPGGPWRPEPNTSSPSMPELSPVLGLHQGQGAGDSPTPGPSNAAPVCRNSHTATPNVSPI
notes: as for B2
In the case of B6, the “% Complex formation” value in assay [1] was 90%.

B7: type B EBNA2 comprising amino acids 216-392 (other)
chain: GHQLSLPPHPPPHQSTPHCSSDSTGLPPPPTSYSIPSMTLSPEPLPPPAAPAHPLPGVIYDQQALPPTPGPPWWPPVRDPTPTTQTPPTNTKQGPDQGQGRGRWRGRGRSKGRGRMHKLPEPRRPGPDTSSPSMPQLSPVVSLHQGQGPENSPTPGPSTAGPVCRVTPSATPDISPI
notes: range 216-392; Prepared by in vitro transcription and translation; gene provided by Dr. Elliott Kieff; also called type B peptide
Turning to B7, in assay [3], the “fold more peptide required than type A EBNA2 for conversion of all the CBF1 to the supershifted complex” value came out at 2 fold.

The record behind these values is US6495144 (Johns Hopkins, dated 2002).
